# According to patent US6355785 (Aronex Pharmaceuticals, Inc.):
# Target: T1, HIV-1 integrase wild-type (IN1-288) (Human immunodeficiency virus 1, UniProt P12497 P12497:1148-1435)
# Test: inhibition; both activities 0.120; row misprinted T30745
# Conditions: not given
row,Binder,IC50 [nM]
1,"GCGGGGCTCCATGGGGGTCG (structured_DNA, pPT (PS at first and last linkages)) [T30754]",120

# Target: T1, HIV-1 integrase wild-type (IN1-288)
# Test: inhibition
# Conditions: not given
row,Binder,IC50 [nM]
1,"GTGGTTGGTGTGGTTGG (structured_DNA, pPT (PS at first and last linkages)) [T30673]",600
2,"GTGGTTGGTGTGGTTGGT (structured_DNA, pPT (PS at first and last linkages)) [T30674]",610
3,"GTGGTGGGTGGGTTGGT (structured_DNA, pPT (PS at first and last linkages)) [T30678]",120
4,"GUGGUGGGUGGGUGGGU (ssRNA, pPT (PS at first and last linkages), RNA sugars) [T30661]",84
5,"GTGGGTGGTGGGTGGGT (structured_DNA, pPT (PS at first and last linkages)) [T30696]",13
6,"GTGGTGGGGTGGTGGGT (structured_DNA, pPT (PS at first and last linkages)) [T30697]",13
7,"GTGGTGGGTGGGGTGGT (structured_DNA, pPT (PS at first and last linkages)) [T30698]",16
8,"GTGGGTGGTGGGGTGGT (structured_DNA, pPT (PS at first and last linkages)) [T30699]",50
9,"GTGGTGGGTGGGTGGGT (structured_DNA, pPT; capital T = C-5 propynyl dU (position 5)) [T30700]",40
10,"GTGGTGGGTGGGTGGGT (structured_DNA, pPT; N13 = C-5 propynyl dU [n positions 13 = modified dU]) [T30701]",30
11,"GTGGTGGGTGGGTGGGT (structured_DNA, pPT; N5,N13 = C-5 propynyl dU [n positions 5,13 = modified dU]) [T30702]",30
12,"GTGGTGGGTGGGTGGGT (structured_DNA, pPT; N5,N9,N13 = 5-bromo dU [n positions 5,9,13 = modified dU]) [T30571]",50
13,"GTGGTGGGTGGGTGGGT (structured_DNA, pPT; N5 = 5-iodo dU [n positions 5 = modified dU]) [T30576]",50
14,"GTGGTGGGTGGGTGGGT (structured_DNA, pPT; N13 = 5-iodo dU [n positions 13 = modified dU]) [T30578]",50
15,"GTGGTGGGCGGGTGGGT (structured_DNA, pPT) [T30744]",60

# Target: T2, HIV-1 reverse transcriptase (Human immunodeficiency virus 1, UniProt P03366;P03366 P03366:600-1159,P03366:600-1039)
# Test: inhibition
# Conditions: not given
row,Binder,Ki [nM]
1,"GTGGTGGGTGGGTGGGTGGTGGGTGGTGGTTGTGGGTGGGTGGTG (ssDNA, PS all linkages, 3'-amine) [I100-21]",1
2,"GTTGGGGGTTGTTGGTGGGGTGGTGG (ssDNA, PS all linkages, 3'-amine) [I100-12]",5
3,"GGGTGGGTGGGTGGGTGG (ssDNA, PS all linkages, 3'-amine) [1174]",15
4,"GTGGTGGGTGGGTGGGTGGTGGGTGGTGGTTGTGGGTGGGTGGTG (ssDNA, phosphodiester, 3'-amine) [I100-07]",137
5,"GTTGGGGGTTGTTGGTGGGGTGGTGG (ssDNA, phosphodiester, 3'-propanolamine) [I100-00]",370
6,"GATCCATGTCAGTGACAC (ssDNA, PS all linkages, 3'-amine) [1232 random GATC]",560

# Target: T1, HIV-1 integrase wild-type (IN1-288)
# Test: inhibition; 3'-process column; strand transfer column 0.150
# Conditions: not given
row,Binder,IC50 [nM]
1,"GTGGCGGGCGGGCGGGT (structured_DNA, pPT) [T30746]",150

# Target: T3, HIV-1 integrase wild-type (IN1-288) (Human immunodeficiency virus 1, UniProt P12497 P12497:1148-1435)
# Test: inhibition; 3'-process column; strand transfer column 0.060 (headings appear swapped)
# Conditions: intermolecular G4
row,Binder,IC50 [nM]
1,"GCGGGGCTCCATGGGGGTCG (structured_DNA, PS pattern g*c*gggc*t*c*c*a*tggggg*t*c*g (as printed in table footnote)) [S935833]",45

# Target: T4, HIV-1 integrase IN1-212 (C-terminal deletion) (HIV-1, UniProt P04585 P04585:1148-1359)
# T4 chain: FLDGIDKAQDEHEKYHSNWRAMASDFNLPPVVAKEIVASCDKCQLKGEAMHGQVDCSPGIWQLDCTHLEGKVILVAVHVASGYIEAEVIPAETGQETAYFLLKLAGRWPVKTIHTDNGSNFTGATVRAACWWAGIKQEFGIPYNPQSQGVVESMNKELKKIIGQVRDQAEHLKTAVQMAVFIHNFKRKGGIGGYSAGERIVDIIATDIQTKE
# Test: inhibition; disintegration assay, Mn2+, 30 C
# Conditions: intramolecular G4
row,Binder,IC50 [nM]
1,"GTGGTGGGTGGGTGGGT (structured_DNA, PS at the terminal 5' and 3' internucleoside linkages) [T30177 (AR177)]",600

# Target: T2, HIV-1 reverse transcriptase
# Test: inhibition; printed as ID50
# Conditions: not given
row,Binder,IC50 [nM]
1,"GTGGTGGGTGGGTGGGTGGTGGGTGGTGGTTGTGGGTGGGTGGTG (ssDNA, PS all linkages, 3'-amine) [I100-21]",4
2,"GTTGGGGGTTGTTGGTGGGGTGGTGG (ssDNA, PS all linkages, 3'-amine) [I100-12]",15
3,"GGGTGGGTGGGTGGGTGG (ssDNA, PS all linkages, 3'-amine) [1174]",15.4
4,"GTGGTGGGTGGGTGGGTGGTGGGTGGTGGTTGTGGGTGGGTGGTG (ssDNA, phosphodiester, 3'-amine) [I100-07]",2500
5,"GTTGGGGGTTGTTGGTGGGGTGGTGG (ssDNA, phosphodiester, 3'-propanolamine) [I100-00]",5000
6,"GATCCATGTCAGTGACAC (ssDNA, PS all linkages, 3'-amine) [1232 random GATC]",45

# Target: T1, HIV-1 integrase wild-type (IN1-288)
# Test: inhibition; 3'-process column; strand transfer column 0.055; row misprinted T30745
# Conditions: not given
row,Binder,IC50 [nM]
1,"GTGGCGGGTGGGTGGGT (structured_DNA, pPT) [T30743]",60

# Target: T1, HIV-1 integrase wild-type (IN1-288)
# Test: inhibition; both activities 0.125
# Conditions: not given
row,Binder,IC50 [nM]
1,"TGGGAGGTGGGTCTG (structured_DNA, pPT (PS at first and last linkages)) [T30748]",125

# Target: T3, HIV-1 integrase wild-type (IN1-288)
# Test: inhibition; both activities 0.120
# Conditions: intermolecular G4
row,Binder,IC50 [nM]
1,"TGGGAGGTGGGTCTG (structured_DNA, all phosphodiester, DMT at 3' end) [T30747B]",120
